The target of this assay is T1, pyruvate kinase M2 (human (endogenous in U87), UniProt P14618 1-531).
T1 construct: pyruvate kinase M2 (PKM2), endogenous in the human glioblastoma cell line U87; In irradiated cells part of the nuclear PKM2 is phosphorylated at T328 by ATM; The lysates hold a mixture; also called PKM2; source: endogenous, U87 lysate
Description: not stated; association of PKM2 and CtIP after irradiation, with the ATM inhibitor KU55933 against without; legend of Fig. S7a not shown. Particulars: partners not purified.

Where only a bound is given, the exact number is not on record here.

T1 sequence (P14618 whole entry): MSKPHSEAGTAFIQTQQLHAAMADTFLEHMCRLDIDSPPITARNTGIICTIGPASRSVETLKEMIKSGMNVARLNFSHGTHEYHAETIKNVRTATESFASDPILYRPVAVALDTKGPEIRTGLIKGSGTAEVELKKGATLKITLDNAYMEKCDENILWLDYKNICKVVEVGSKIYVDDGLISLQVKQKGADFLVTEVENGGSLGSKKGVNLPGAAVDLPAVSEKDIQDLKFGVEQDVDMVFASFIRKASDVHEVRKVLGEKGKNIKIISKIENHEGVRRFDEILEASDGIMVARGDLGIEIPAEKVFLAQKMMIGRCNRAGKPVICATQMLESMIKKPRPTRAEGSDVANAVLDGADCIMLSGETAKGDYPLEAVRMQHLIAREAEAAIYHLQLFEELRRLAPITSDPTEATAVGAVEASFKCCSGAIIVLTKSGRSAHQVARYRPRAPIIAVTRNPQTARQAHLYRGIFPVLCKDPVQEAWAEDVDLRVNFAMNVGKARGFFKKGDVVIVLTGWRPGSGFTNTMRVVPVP

B1: CtBP-interacting protein (natural protein, human (endogenous in U87), UniProt Q99708 1-897, looked up)
chain: MNISGSSCGSPNSADTSSDFKDLWTKLKECHDREVQGLQVKVTKLKQERILDAQRLEEFFTKNQQLREQQKVLHETIKVLEDRLRAGLCDRCAVTEEHMRKKQQEFENIRQQNLKLITELMNERNTLQEENKKLSEQLQQKIENDQQHQAAELECEEDVIPDSPITAFSFSGVNRLRRKENPHVRYIEQTHTKLEHSVCANEMRKVSKSSTHPQHNPNENEILVADTYDQSQSPMAKAHGTSSYTPDKSSFNLATVVAETLGLGVQEESETQGPMSPLGDELYHCLEGNHKKQPFEESTRNTEDSLRFSDSTSKTPPQEELPTRVSSPVFGATSSIKSGLDLNTSLSPSLLQPGKKKHLKTLPFSNTCISRLEKTRSKSEDSALFTHHSLGSEVNKIIIQSSNKQILINKNISESLGEQNRTEYGKDSNTDKHLEPLKSLGGRTSKRKKTEEESEHEVSCPQASFDKENAFPFPMDNQFSMNGDCVMDKPLDLSDRFSAIQRQEKSQGSETSKNKFRQVTLYEALKTIPKGFSSSRKASDGNCTLPKDSPGEPCSQECIILQPLNKCSPDNKPSLQIKEENAVFKIPLRPRESLETENVLDDIKSAGSHEPIKIQTRSDHGGCELASVLQLNPCRTGKIKSLQNNQDVSFENIQWSIDPGADLSQYKMDVTVIDTKDGSQSKLGGETVDMDCTLVSETVLLKMKKQEQKGEKSSNEERKMNDSLEDMFDRTTHEEYESCLADSFSQAADEEEELSTATKKLHTHGDKQDKVKQKAFVEPYFKGDERETSLQNFPHIEVVRKKEERRKLLGHTCKECEIYYADMPAEEREKKLASCSRHRFRYIPPNTPENFWEVGFPSTQTCMERGYIKEDLDPCPRPKRRQPYNAIFSPKGKEQKT
notes: also called CtIP; source: endogenous, U87 lysate
In the case of B1, the “fold reduction of the association by KU55933 after irradiation” value was > 2.5 fold.

The values above are taken from publication PMC6218445, “Pyruvate kinase M2 regulates homologous recombination-mediated DNA double-strand break repair” (Cell Research, 2018).
